Residue numbers refer to the chain shown, from its start.
Columns and labels:
[1] = biological target: human CD1a expressed on cells (human) (UniProt P06126); assay: flow cytometry, ear skin cells of a CD1a transgenic mouse given isotype control (panel 'CD1a : iso'), stained with anti-CD1a SK9; cell population not named on the sheet
[2] = biological target: human CD1a expressed on cells (human) (UniProt P06126); assay: flow cytometry, ear skin cells of a CD1a transgenic mouse given antibody 116 (100 ug i.p. on days 0, 2 and 4; panel 'CD1a : OX116'), stained on day 5 with anti-CD1a SK9
[3] = biological target: human CD1a expressed on cells (human) (UniProt P06126); assay: flow cytometry, ear skin cells of a CD1a transgenic mouse given isotype control (row 'CD1a : iso'), stained with anti-CD1a HI149; cell population not named on the sheet
[4] = biological target: human CD1a expressed on cells (human) (UniProt P06126); assay: flow cytometry, ear skin cells of a CD1a transgenic mouse given antibody 116 (100 ug i.p. on days 0, 2 and 4; row 'CD1a : OX116'), stained on day 5 with anti-CD1a HI149; the cloud of cells lies at the lower edge of the gate
[5] = biological target: T1, Human CD1a/beta2m heterodimer (HEK293S, deglycosylated, zippers and tags cleaved) (human, UniProt P61769 21-119); assay: SPR (Biacore 3000): biotinylated OX116 scFv on a streptavidin chip, CD1a-endo (CD1a with endogenous lipids) injected up to 1000 nM; 1:1 specific binding fit; unit from the legend paragraph 293
T1 construct: Protein of the crystal structures and of the Biacore 3000 SPR experiments; Carries endogenous lipids (CD1a-endo) or a loaded lipid (named under assay); also called CD1a-endo; CD1a loaded with a specific lipid
Method: (§1) Depending on the experiment biotinylated scFv molecules were coupled onto the chip surface until a total of 150 or 1000 response units per flow cell were achieved. […] Each lipid was solubilised up to 5-10 mM in 20 mM Tris pH8, 150 mM NaCl and 0.5% CHAPS. CD1a-endo was incubated at room temperature overnight with 15-40× molar excess of lipid. The mixture was subsequently purified by anion exchange chromatography using a MonoQ column (GE Healthcare). Fractions corresponding to lipid-loaded CD1a were pooled together and up-concentrated to 5 μM. Serial dilutions of CD1a up to a maximum concentration of 1 μM were injected for 60 s at 25 C in 20 mM Tris pH8, 150 mM NaCl buffer. The dissociation time between the injections was between 5 minutes up to 1 h. […] Each injection cycle consisted of a 60 s injection of 1 μM CD1a alone immediately followed by increasing concentrations of TCRs (0 to 50 μM) supplemented with 100 nM CD1a to prevent further dissociation of CD1a from the coupled Ab fragment. The runs were performed at 25 C in 20 mM Tris pH8, 150 mM NaCl, 0.5% BSA buffer. In all SPR experiments relative binding response was calculated by subtracting the non-specific response on a reference cell, where an unrelated protein was coupled. The binding curves were obtained by fitting the measured response to a 1:1 specific binding model in GraphPad.

[6] = biological target: T1, Human CD1a/beta2m heterodimer (HEK293S, …); assay: SPR (Biacore 3000): biotinylated OX116 scFv on a streptavidin chip, CD1a-GD3 (CD1a loaded with GD3 ganglioside) injected up to 1000 nM; 1:1 specific binding fit; unit from the legend paragraph 293
Method: as §1

[7] = biological target: T1, Human CD1a/beta2m heterodimer (HEK293S, …); assay: SPR (Biacore 3000): biotinylated OX116 scFv on a streptavidin chip, CD1a-SM24:1 (CD1a loaded with sphingomyelin 24:1) injected up to 1000 nM; 1:1 specific binding fit; unit from the legend paragraph 293
Method: as §1

[8] = biological target: T1, Human CD1a/beta2m heterodimer (HEK293S, …); assay: SPR (Biacore 3000): biotinylated OX116 scFv on a streptavidin chip, CD1a-LPC (CD1a loaded with lysophosphatidylcholine) injected up to 1000 nM; 1:1 specific binding fit; unit from the legend paragraph 293
Method: as §1

[9] = biological target: T1, Human CD1a/beta2m heterodimer (HEK293S, …); assay: SPR (Biacore 3000): biotinylated OX16 scFv on a streptavidin chip, CD1a-GD3 (CD1a loaded with GD3 ganglioside) injected up to 1000 nM; 1:1 specific binding fit; unit from the legend paragraph 293
Method: as §1

[10] = biological target: T1, Human CD1a/beta2m heterodimer (HEK293S, …); assay: SPR (Biacore 3000): biotinylated OX16 scFv on a streptavidin chip, CD1a-SM24:1 (CD1a loaded with sphingomyelin 24:1) injected up to 1000 nM; 1:1 specific binding fit; unit from the legend paragraph 293
Method: as §1

[11] = biological target: T1, Human CD1a/beta2m heterodimer (HEK293S, …); assay: SPR (Biacore 3000): biotinylated OX16 scFv on a streptavidin chip, CD1a-LPC (CD1a loaded with lysophosphatidylcholine) injected up to 1000 nM; 1:1 specific binding fit; unit from the legend paragraph 293
Method: as §1

[12] = biological target: T1, Human CD1a/beta2m heterodimer (HEK293S, …); assay: SPR (Biacore 3000): biotinylated OX16 scFv on a streptavidin chip, CD1a-endo (CD1a with endogenous lipids) injected up to 1000 nM; response fitted to a 1:1 specific binding model; unit from the legend paragraph 293
Method: as §1

[13] = biological target: Cynomolgus monkey CD1a protein (Cynomolgus monkey); assay: ELISA, Ab 1 µg/ml
[14] = biological target: Cynomolgus monkey CD1a protein (Cynomolgus monkey); assay: ELISA, Ab 10 µg/ml
[15] = biological target: Cynomolgus monkey CD1a protein (Cynomolgus monkey); assay: ELISA, Ab 0.1 µg/ml
[16] = biological target: Cynomolgus monkey CD1a protein (Cynomolgus monkey); assay: ELISA, Ab 0.01 µg/ml
[17] = biological target: Cynomolgus monkey CD1a expressed on HEK-293 cells (Cynomolgus monkey); assay: flow, HEK-293, Ab 1 µg/ml
[18] = biological target: Cynomolgus monkey CD1a expressed on HEK-293 cells (Cynomolgus monkey); assay: flow, HEK-293, Ab 10 µg/ml
[19] = biological target: Cynomolgus monkey CD1a expressed on HEK-293 cells (Cynomolgus monkey); assay: flow, HEK-293, Ab 0.1 µg/ml
[20] = biological target: Cynomolgus monkey CD1a expressed on HEK-293 cells (Cynomolgus monkey); assay: flow, HEK-293, Ab 0.01 µg/ml
[21] = biological target: T2, human CD1b expressed on HEK-293 cells (human, UniProt P29016 18-333; P61769 21-119); assay: flow cytometry, HEK-293
T2 construct: whole, on cells; also called HEK - CD1b
Method: (§2) CD1a-specific antibodies were identified by flow cytometry. Binding to proteins expressed on HEK, CIR and MOLT4 cell lines was assessed. […] The C1R-CD1a, C1R-empty vector and MOLT4 cell lines were washed in 1×PBS on the day required. All cell lines were counted and resuspended in 1×PBS and then stained for 30 minutes at 37° C. using the DiI or DiO cellular stains (Invitrogen). Cells were washed with flow cytometry buffer (1% bovine serum albumin, 2 mM EDTA and 0.1% sodium azide in PBS) before mixing 2 DiI-stained and DiO-stained populations together. The cells (20 μl/well) were then added to dilutions of antibody sample (B cell culture supernatant, TAP supernatant, clone supernatant, purified antibody solution) (20 μl/well) and incubated for 1 hour at 4° C. in a flow cytometry assay plate, before being washed with flow cytometry buffer. 10 μl/well of Alexafluor647-conjugated goat anti-species IgG Fc-specific F(ab′)2 fragment (Jackson ImmunoResearch), diluted 1:2500 in flow cytometry buffer, was added and incubated at 4° C. for 30 minutes, followed by washing with wash buffer. The fluorescence intensity was then measured on an iQue screener PLUS.
(§3) HEK-293 cells were transiently transfected with human CD1a, CD1b, CD1c or CD1d and co-transfected with human β2M.

[22] = biological target: T3, human CD1c expressed on HEK-293 cells (human, UniProt P29017 18-333; P61769 21-119); assay: flow cytometry, HEK-293
T3 construct: whole, on cells; also called HEK - CD1c
Method: as §2, §3

[23] = biological target: T4, human CD1d expressed on HEK-293 cells (human, UniProt P15813 20-335; P61769 21-119); assay: flow cytometry, HEK-293
T4 construct: whole, on cells; also called HEK - CD1d
Method: as §2, §3

## SK9 (antibody)
[1]
  CD1a+ (gate frequency, percent of plotted cells; unit not given): 84.9
[2]
  CD1a+ (gate frequency, percent of plotted cells; unit not given): 87.4

## HI149 (antibody)
[3]
  CD1a+ (gate frequency, percent of plotted cells; unit not given): 82.2
[4]
  CD1a+ (gate frequency, percent of plotted cells; unit not given): 46.6

B1: OX116 scFv (scFv)
scFv: DAQSVEESGGRLVTPGTPLTLTCTVSGFSLSNYAMSWVRQAPGKGLEWIGIIYTTGFTYYASWVKGRFTISKTSTTVDLKITSPTTEDTATYFCARGLATYVSPPTRLDLWGQGTLVTVSSGGGGSGGGGSGGGGSAQVLTQTPSPVSAAVGGTVTINCQASQSIYNSKNLAWYQQKPGQPPKLLIYSASTLASGVPSRFKGSGSGTQFTLTISDLESDDAATYYCQGEFSCSSVDCATFGGGTEVVVKSGLEVLFQGPGSGLNDIFEAQKIEWHEHHHHHH
modifications: biotinylated on the C-terminal biotinylation tag (SPR only)
notes: The entry holds the leader, VH, linker, VL, 3C site, BirA tag and His tag; For crystallisation the BirA and His tags were cut off with 3C protease; also called OX116 Ab fragment
[5]
  Kd: 483 nM
[6]
  Kd: 329 nM
[7]
  Kd: 529 nM
[8]
  Kd: 1520 nM

B2: OX16 scFv (scFv)
scFv: DAEVQLVESGGGLVKPGGSLKLSCAASGFTFSNYAMSWVRQTPEKRLEWVAAINSNGGSAYYPDTVKDRFTISRDNAKNTLYLQMSSLRSEDTALYYCARRFYYDYGWFAYWGQGTLVTVSSGGGGSGGGGSGGGGSDIVLTQSPASLSASVGETVTITCRASENIDSYLAWYQQKQGKSPQLLVYAATLLADGVPSRFSGSGSGTQYSLKINSLQSEDVARYYCQHYYSSPWTFGGGTKLEIKSGLEVLFQGPGSGLNDIFEAQKIEWHEHHHHHH
modifications: biotinylated on the C-terminal biotinylation tag (SPR only)
notes: The entry holds the leader, VH, Gly-Ser linker, VL, 3C site, BirA tag and His tag; For crystallisation the BirA and His tags were cut off with 3C protease; also called 16 ScFv full; single chain variable construct of OX16
[9]
  Kd: 1270 nM
[10]
  Kd: 860 nM
[11]
  Kd: 1010 nM
[12]
  Kd: 476 nM

B3: 77A (VR11851) (antibody, V domains shown)
VH: QSVEESGGRLVTPGTPLTLTCTVSGFSLSSYAMSWVRQAPGKGLEWIGIISSSGTTYYASWAKGRFTISKTSTTVDLKITSPTTEDTATYFCARVDYYSSGWGGLWGPGTLVTVSS
VL: AVEMTQTPASMSAAVGGTVTIKCQASEDIYSNLAWYQQKPGQPPKLLIYGASTLASGVPSRFKGSGSGTEYTLTISGVQCDDAATYYCQCTYDTSSYGNTFGGGTEMVVE
notes: V regions were 'cloned as either rabbit or mouse full length antibodies'; also called OX77a; antibody 77a
[13]
  Optical Density (OD): 0.43 OD
[14]
  Optical Density (OD): 0.52 OD
[15]
  Optical Density (OD): 0.24 OD
[16]
  Optical Density (OD): 0.1 OD
[17]
  Fluorescence Intensity Geomean (normalized to background) (fold over background): 10.6
[18]
  Fluorescence Intensity Geomean (normalized to background) (fold over background): 1.4
[19]
  Fluorescence Intensity Geomean (normalized to background) (fold over background): 5.7
[20]
  Fluorescence Intensity Geomean (normalized to background) (fold over background): 1.7
[21]
  binding result: no binding (tested: 100 µg/ml)
[22]
  binding result: no binding (tested: 100 µg/ml)
[23]
  binding result: no binding (tested: 100 µg/ml)

B4: 111 (VR12113) (antibody, V domains shown)
VH: QSVEESGGRLVTPGTPLTLTCTASGFSLSTYAMSWVRQAPGKGLEWIGIISSSGSTYYASWAKGRFTISKTSTTVDLKITSPTTEDTATYFCARETWYWLDLWGQGTLVTVSS
VL: B3 VL with M11V, K22N, T91A, T94S, N99T, T100P, M107V, E110K
notes: also called OX111
[13]
  Optical Density (OD): 0.69 OD
[14]
  Optical Density (OD): 0.79 OD
[15]
  Optical Density (OD): 0.66 OD
[16]
  Optical Density (OD): 0.48 OD
[17]
  Fluorescence Intensity Geomean (normalized to background) (fold over background): 12.9
[18]
  Fluorescence Intensity Geomean (normalized to background) (fold over background): 16.3
[19]
  Fluorescence Intensity Geomean (normalized to background) (fold over background): 25.8
[20]
  Fluorescence Intensity Geomean (normalized to background) (fold over background): 8.9
[21]
  binding result: no binding (tested: 100 µg/ml)
[22]
  binding result: no binding (tested: 100 µg/ml)
[23]
  binding result: no binding (tested: 100 µg/ml)

B5: 116 (VR12117) (antibody, V domains shown)
VH: QSVEESGGRLVTPGTPLTLTCTVSGFSLSNYAMSWVRQAPGKGLEWIGIIYTTGFTYYASWVKGRFTISKTSTTVDLKITSPTTEDTATYFCARGLATYVSPPTRLDLWGQGTLVTVSS
VL: AQVLTQTPSPVSAAVGGTVTINCQASQSIYNSKNLAWYQQKPGQPPKLLIYSASTLASGVPSRFKGSGSGTQFTLTISDLECDDAATYYCQGEFSCSSVDCATFGGGTEVVVK
notes: also called OX116
[13]
  Optical Density (OD): 0.14 OD
[14]
  Optical Density (OD): 0.16 OD
[15]
  Optical Density (OD): 0.07 OD
[16]
  Optical Density (OD): 0.07 OD
[17]
  Fluorescence Intensity Geomean (normalized to background) (fold over background): 0.8
[18]
  Fluorescence Intensity Geomean (normalized to background) (fold over background): 1.7
[19]
  Fluorescence Intensity Geomean (normalized to background) (fold over background): 1
[20]
  Fluorescence Intensity Geomean (normalized to background) (fold over background): 1
[21]
  binding result: no binding (tested: 100 µg/ml)
[22]
  binding result: no binding (tested: 100 µg/ml)
[23]
  binding result: no binding (tested: 100 µg/ml)

B6: 110 (VR12112) (antibody, V domains shown)
VH: QSVEESGGRLVTPGTPLTLTCTVSGFSLSSYAMIWVRQAPGKGLEWIGIINSSDNTHYATWAKGRFTISKTSTTVDLKITSPTTEDTATYFCARDPYDYGYGWYFDLWGPGTLVTVSS
VL: AQVLTQTPSPVSAAVGGTVTINCQASQSVFNNKNLAWYQQKPGQPPKLLIYKASTLASGVSSRFKGSGSGTQFALTISGVQCDDAATYYCQGEFSCSSTDCVTFGGGTEVVVK
notes: V regions were 'cloned as either rabbit or mouse full length antibodies'; also called OX110; antibody 110
[13]
  Optical Density (OD): 0.94 OD
[14]
  Optical Density (OD): 0.86 OD
[15]
  Optical Density (OD): 0.53 OD
[16]
  Optical Density (OD): 0.22 OD
[18]
  Fluorescence Intensity Geomean (normalized to background) (fold over background): 13.6
[19]
  Fluorescence Intensity Geomean (normalized to background) (fold over background): 3.3
[20]
  Fluorescence Intensity Geomean (normalized to background) (fold over background): 1.2
[21]
  binding result: no binding (tested: 100 µg/ml)
[22]
  binding result: no binding (tested: 100 µg/ml)
[23]
  binding result: no binding (tested: 100 µg/ml)
